Values belong to the binder of their own block, whether it stands above or below them.
What was measured:
human CD28 [1] = target: T1, human CD28 (human, UniProt P10747 19-220); assay: cell-based or functional assay
human CD28 [2] = target: T1, human CD28; assay: cell-based or functional assay; remark: listed apart in the source
human CD28 [3] = target: T1, human CD28; assay: cell-based or functional assay; remark: listed apart in the source
human CD28 [4] = target: T1, human CD28; assay: cell-based or functional assay; remark: listed apart in the source
human CD28 on cells = target: T2, human CD28 on cells (human, UniProt P10747 19-220); assay: flow cytometry on Jurkat cells (human CD28)
T2 construct: whole, on cells; also called CD28 on Jurkat cells; CD28 on human CD4+ T-cells
Description: (§1) Flow cytometric analysis was utilized to determine binding of CD22×CD28 bispecific antibodies to human CD22 expressing Nalm6 cells and human CD28 expressing Jurkat cells and to cynomolgus monkey T (CD28+) and B (CD22+) cells. […] After incubation, the cells were washed twice with cold PBS containing 1% filtered FBS and a PE-conjugated anti-human secondary antibody was added to the cells and incubated for an additional 30 minutes. An additional phenotyping antibody cocktail (anti-CD2, anti-CD20, anti-CD16, anti-CD14) was added to wells with cynomolgus monkey PBCMs. Wells containing no antibody or secondary only were used as a control.
(§2) After incubation with secondary antibody, cells were washed, re-suspended in 200 μL cold PBS containing 1% filtered FBS and analyzed by flow cytometry on a BD LSR_Fortessa. Cynomolgus monkey T cells were identified as CD2+/CD16− and B cells as CD20+. EC₅₀ values for FACS binding were calculated using 4-parameter non-linear regression analysis in Prism software.

hCD28.mmH = target: T3, hCD28.mmH (human); assay: SPR (Biacore T-200), mAb captured by anti-human Fc, hCD28.mmH injected, 25°C
T3 construct: also called human CD28 with a C-terminal myc.myc hexahistidine tag
Description: (§3) All of the binding kinetics experiments were performed at 25° C. Kinetic association (kₐ) and dissociation (kd) rate constants were determined by fitting the real-time sensorgrams to a 1:1 binding model using Scrubber 2.0c curve fitting software.

[5] = target: T4, human CD20 on HEK293/hCD20 cells (human, UniProt P11836 1-297); assay: flow cytometry on HEK293/hCD20 cells (negative for CD22 and CD28), geometric mean MFI of APC
T4 construct: whole, on cells; Used as a cell line negative for CD28 and CD22; also called negative cell line for CD28 and CD22
T4 sequence (looked up): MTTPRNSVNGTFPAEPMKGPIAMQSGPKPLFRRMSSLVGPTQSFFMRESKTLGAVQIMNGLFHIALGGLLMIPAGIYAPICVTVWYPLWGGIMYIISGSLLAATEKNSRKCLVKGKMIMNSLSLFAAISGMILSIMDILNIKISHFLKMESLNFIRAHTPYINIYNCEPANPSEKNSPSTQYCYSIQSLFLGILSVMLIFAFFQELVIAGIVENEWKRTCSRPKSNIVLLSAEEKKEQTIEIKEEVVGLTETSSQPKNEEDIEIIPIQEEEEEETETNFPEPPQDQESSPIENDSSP
Description: (§4) Briefly, human CD4+ T-cells, HEK293/hCD20, HEK293/hCD20/hCD22 and Raji/CD80 and CD86 negative cells were resuspended in staining buffer containing D-PBS+2% FBS. […] A negative control sample was included containing no antibody. Cells were washed once with cold staining buffer and incubated for 30-45 minutes with Allophycocyanin (APC) labeled anti-human secondary antibody. After incubation, cells were washed once with cold D-PBS buffer without FBS and incubated with LIVE/DEAD Fixable Green Dead Cell Stain (Invitrogen) according to manufacturer's instructions to discriminate between live and dead cells. Cells were then fixed in BD Cytofix Buffer according to manufacturer's instructions, washed, re-suspended in staining buffer, and analyzed by flow cytometry on an iQue Screener flow cytometer. For EC₅₀ determinations, geometric mean fluorescence intensity (MFI) values were analyzed using a four parameter logistic equation over a 9-point response curve using GraphPad Prism. Fold binding was calculated using the following equation:

human CD22 on cells = target: T5, human CD22 on cells (human, UniProt P20273 20-847); assay: flow cytometry on Nalm6 cells (human CD22)
T5 construct: whole, on cells; also called hCD22; CD22 on Nalm6 cells
Description: as §1, §2

hCD22.mmH = target: T6, hCD22.mmH (human, UniProt P20273 20-687); assay: SPR (Biacore), mAb captured by anti-human Fc, hCD22.mmH injected, 25°C
T6 construct: also called REGN5140; recombinant human CD22
Description: as §3

human CD22 [6] = target: T7, human CD22 (human, UniProt P20273 20-847); assay: flow cytometry on Raji/CD80 and CD86 negative cells
T7 construct: whole, on cells; also called hCD22
Description: as §4

human CD22 [7] = target: T7, human CD22; assay: flow cytometry on HEK293/hCD20/hCD22 cells
Description: as §4

EC50 [M], IL-2 release, primary human CD4+ T-cells + HEK293/hCD20, 2 nM REGN2281 (αCD20 x αCD3) (human CD28 [1]): 2.23e-09 M
EC50 [M], IL-2 release, primary human CD4+ T-cells + Raji/CD80 and CD86 negative, 2 nM REGN2281 (αCD20 x αCD3) (human CD28 [1]): 4.51e-11 M
Max RFU, IL-2 release, primary human CD4+ T-cells + HEK293/hCD20, 2 nM REGN2281 (αCD20 x αCD3) (human CD28 [1]): 68900 RFU
Max RFU, IL-2 release, primary human CD4+ T-cells + HEK293/hCD20/hCD22, 2 nM REGN2281 (αCD20 x αCD3) (human CD28 [1]): 57400 RFU
Max RFU, IL-2 release, primary human CD4+ T-cells + Raji/CD80 and CD86 negative, 2 nM REGN2281 (αCD20 x αCD3) (human CD28 [1]): 249000 RFU
EC50 [M], luciferase activity, reporter T-cells + HEK293/hCD20, 200 pM REGN2281 (αCD20 x αCD3) (human CD28 [2]): 2.63e-10 M
EC50 [M], luciferase activity, reporter T-cells + HEK293/hCD20/hCD22, 200 pM REGN2281 (αCD20 x αCD3) (human CD28 [2]): 7.7e-11 M
EC50 [M], luciferase activity, reporter T-cells + Raji/CD80 and CD86 negative, 200 pM REGN2281 (αCD20 x αCD3) (human CD28 [2]): 4.33e-10 M
Max RLU, luciferase activity, reporter T-cells + HEK293/hCD20, 200 pM REGN2281 (αCD20 x αCD3) (human CD28 [2]): 409000 RLU
Max RLU, luciferase activity, reporter T-cells + HEK293/hCD20/hCD22, 200 pM REGN2281 (αCD20 x αCD3) (human CD28 [2]): 171000 RLU
Max RLU, luciferase activity, reporter T-cells + Raji/CD80 and CD86 negative, 200 pM REGN2281 (αCD20 x αCD3) (human CD28 [2]): 569000 RLU
EC50 [M], IL-2 release, primary human CD4+ T-cells + Raji/CD80 and CD86 negative, 2 nM REGN1945 (isotype control) (human CD28 [3]): 1.11e-10 M
Max RFU, IL-2 release, primary human CD4+ T-cells + HEK293/hCD20, 2 nM REGN1945 (isotype control) (human CD28 [3]): 2290 RFU
Max RFU, IL-2 release, primary human CD4+ T-cells + HEK293/hCD20/hCD22, 2 nM REGN1945 (isotype control) (human CD28 [3]): 2950 RFU
Max RFU, IL-2 release, primary human CD4+ T-cells + Raji/CD80 and CD86 negative, 2 nM REGN1945 (isotype control) (human CD28 [3]): 49500 RFU
EC50 [M], luciferase activity, reporter T-cells + HEK293/hCD20, 200 pM REGN1945 (no TCR stimulation) (human CD28 [4]): 6.23e-09 M
EC50 [M], luciferase activity, reporter T-cells + HEK293/hCD20/hCD22, 200 pM REGN1945 (no TCR stimulation) (human CD28 [4]): 8.45e-09 M
EC50 [M], luciferase activity, reporter T-cells + Raji/CD80 and CD86 negative, 200 pM REGN1945 (no TCR stimulation) (human CD28 [4]): 7.88e-09 M
Max RLU, luciferase activity, reporter T-cells + HEK293/hCD20, 200 pM REGN1945 (no TCR stimulation) (human CD28 [4]): 25000 RLU
Max RLU, luciferase activity, reporter T-cells + HEK293/hCD20/hCD22, 200 pM REGN1945 (no TCR stimulation) (human CD28 [4]): 25100 RLU
Max RLU, luciferase activity, reporter T-cells + Raji/CD80 and CD86 negative, 200 pM REGN1945 (no TCR stimulation) (human CD28 [4]): 33200 RLU
B1: REGN5705 (antibody, V domains shown)
VH: QVQLQESGPGLVKPSETLSLTCTVSGGSISSYYWSWIRQPPGKGLEWIGYIYYSGITHYNPSLKSRVTISVDTSKIQFSLKLSSVTAADTAVYYCARWGVRRDYYYYGMDVWGQGTTVTVSS
VL: not shown

EC50 (human CD28 on cells): 23 nM
600 nM hCD28.mmH Bind (RU) (hCD28.mmH): 77 RU
Kd (hCD28.mmH): 404 nM
t1/2 (hCD28.mmH): 2.3 min
binding result [5]: no binding (tested: 10^-7 M)
EC50 (human CD22 on cells): 18 nM
90 nM hCD22.mmH Bind (RU) (hCD22.mmH): 26.7 RU
Kd (hCD22.mmH): 14.3 nM
t½ (hCD22.mmH): 38.2 min
B2: REGN5838 (bispecific antibody, V domains shown)
VH 1: QVQLQESGPGLVKPSETLSLTCTVSGGSISSYYWSWIRQPPGKGLEWIGYIYYSGITHYNPSLKSRVTISVDTSKIQFSLKLSSVTAADTAVYYCARWGVRRDYYYYGMDVWGQGTTVTVSS
VH 2: EVQLVESGGGLVQPGGSLKLSCAASGFTFSGSDMHWVRQASGKGLEWVGRIRNQPNSYATAYAASVKGRFTISRDDSKNTAHLQMNSLKTEDTAVYFCTRQKQVVYNYHHYYGMDVWGQGTTVTVSS
VL: not shown
notes: also called anti-CD22 x anti-CD28 bispecific antibody; CD22xCD28 mAb

EC50 (human CD22 [6]): 14.9 nM
EC50 (human CD22 [7]): 11.4 nM
B3: REGN5838 (bispecific antibody, V domains shown)
VH 1: QVQLQESGPGLVKPSETLSLTCTVSGGSISSYYWSWIRQPPGKGLEWIGYIYYSGITHYNPSLKSRVTISVDTSKIQFSLKLSSVTAADTAVYYCARWGVRRDYYYYGMDVWGQGTTVTVSS
VH 2: EVQLVESGGGLVQPGGSLKLSCAASGFTFSGSDMHWVRQASGKGLEWVGRIRNQPNSYATAYAASVKGRFTISRDDSKNTAHLQMNSLKTEDTAVYFCTRQKQVVYNYHHYYGMDVWGQGTTVTVSS
VL: not shown
notes: also called anti-CD22 x anti-CD28 bispecific antibody; CD22xCD28

EC50 (human CD22 [6]): 9.76 nM
B4: REGN5837 (bispecific antibody, human IgG4, V domains shown)
VH 1: QVQLQESGPGLVKPSETLSLTCTVSGGSISSYYWSWIRQPPGKGLEWIGYIYYSGITHYNPSLKSRVTISVDTSKIQFSLKLSSVTAADTAVYYCARWGVRRDYYYYGMDVWGQGTTVTVSS
VH 2: EVQLVQSGAEVKKPGESLKISCKGSGYNFATYWIAWVRQMPGKGLELMGIIYPGDSETTYNPSFQGQVTISADKSISNAYLQWSSLKASDTAMYYCARVGGYCSGTSCHNWFDPWGLGTLVTVSS
VL: not shown
notes: as for B3

Source: US20230174652A1 (Regeneron, published 2023)
